Values of other authors, collected in US20040063697A1, “Compositions of cyclooxygenase-2 selective inhibitors and thrombolytic agents for the treatment or prevention of a vaso-occlusive event” (priority 2002, published 2004).

How the values were obtained:
[1] = test system: coronary intimal proliferation; conditions: oral administration, swine model of restenosis
[2] = test system: vascular smooth muscle cells; conditions: in vitro
minimal lumen diameter = conditions: single dose intravenous pretreatment before coronary stenting, at 6 months
restenosis = conditions: orally administered, stent implanted pig arteries
[3] = for Antigenicity: in vivo; for immune response: when administered to a human
[4] = for Elimination / Half-Life: in vivo
plasminogen = plasminogen (Homo sapiens, UniProt P00747)
Sequence of plasminogen (P00747 20-810 limits assumed): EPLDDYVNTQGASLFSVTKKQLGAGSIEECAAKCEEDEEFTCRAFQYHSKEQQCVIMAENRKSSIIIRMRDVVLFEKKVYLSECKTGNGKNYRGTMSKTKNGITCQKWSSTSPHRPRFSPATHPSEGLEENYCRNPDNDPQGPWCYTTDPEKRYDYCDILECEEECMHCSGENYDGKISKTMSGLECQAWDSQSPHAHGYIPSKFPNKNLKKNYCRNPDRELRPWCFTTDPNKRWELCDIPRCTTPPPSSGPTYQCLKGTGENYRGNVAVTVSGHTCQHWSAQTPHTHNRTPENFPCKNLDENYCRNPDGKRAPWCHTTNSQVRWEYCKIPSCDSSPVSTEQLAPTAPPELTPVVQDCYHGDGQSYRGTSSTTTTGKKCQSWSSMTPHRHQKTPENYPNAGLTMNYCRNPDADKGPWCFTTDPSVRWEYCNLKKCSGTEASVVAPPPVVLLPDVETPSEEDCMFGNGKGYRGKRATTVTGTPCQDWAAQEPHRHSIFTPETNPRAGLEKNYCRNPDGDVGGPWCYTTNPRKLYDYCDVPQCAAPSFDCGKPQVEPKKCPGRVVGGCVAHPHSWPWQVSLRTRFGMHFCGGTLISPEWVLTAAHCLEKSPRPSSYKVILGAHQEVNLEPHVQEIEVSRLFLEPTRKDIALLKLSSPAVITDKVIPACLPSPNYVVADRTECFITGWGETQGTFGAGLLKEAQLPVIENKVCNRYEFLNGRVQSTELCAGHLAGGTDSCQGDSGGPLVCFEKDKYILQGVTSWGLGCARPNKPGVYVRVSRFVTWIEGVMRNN

| Compound | Antigenicity [3] | immune response [3] | Elimination [4] | Half-Life [4] [min] | Method of Plasminogen Activation (plasminogen) | activation of fibrin-bound plasminogen versus circulating plasminogen (plasminogen) | also measured |
| --- | --- | --- | --- | --- | --- | --- | --- |
| CN(C)CCCO[C@@H]1[C@H]2OC(C)(C)O[C@H]2O[C@@H]1[C@H](O)CO.Cl [aniprilose hydrochloride] |  |  |  |  |  |  | coronary intimal proliferation [1]: did not prevent |
| COc1cc(/C=C/C(=O)CC(=O)/C=C/c2ccc(O)c(OC)c2)ccc1O [curcumin] |  |  |  |  |  |  | proliferation of vascular smooth muscle cells [2]: reduced proliferation |
| C[C@H]1C[C@@H]2[C@H]([C@@H](O)C[C@@]3(C)[C@H]2CC[C@]3(O)C(=O)CO)[C@@]2(C)C=CC(=O)C=C12 [methylpridnisolone] |  |  |  |  |  |  | change in minimal lumen diameter (minimal lumen diameter): no effect |
| COc1ccc(C=CC(=O)Nc2ccccc2C(=O)O)cc1OC [tranilast, N-(3,4-dimethoxycinnamoyl) anthranilic acid] |  |  |  |  |  |  | rate of restenosis (restenosis): lower rate of restenosis |
| Alteplase: biosynthetic, glycosylated form of human t-PA | No | no immune response is elicited | Hepatic | 4 to 8 | Direct |  | plasma clearance time and half-life ([4]; in words): rapid plasma clearance time and a short half-life |
| Streptokinase: plasminogen activator produced by beta-hemolytic streptococci | Yes | induce an immune response | Hepatic | 15 to 25 | Indirect | activate fibrin-bound plasminogen as well as circulating plasminogen |  |
| Urokinase | No | does not elicit an immune response | Hepatic | 15 to 20 | Direct | activates fibrin-bound plasminogen as well as circulating plasminogen |  |
| t-PA: tissue plasminogen activators |  |  |  |  |  | highly specific for the activation of fibrin-bound plasminogen over circulating plasminogen |  |
